These results are taken from article PMC3847938, “Biochemical and kinetic characterisation of a novel xylooligosaccharide-upregulated GH43 β-D-xylosidase/α-L-arabinofuranosidase (BXA43) from the probiotic Bifidobacterium animalis subsp. lactis BB-12” (AMB Express, 2013).

The target in series [1] is T1, BXA43 (Bifidobacterium animalis, UniProt B8DTK7).
T1 construct: gene xynB; full-length ORF 541 residues, C-terminal His-tag, pET24(+), E. coli BL21(DE3); theoretical mass 61,774 Da, about 62 kDa on SDS-PAGE
T1 sequence (B8DTK7 1-541): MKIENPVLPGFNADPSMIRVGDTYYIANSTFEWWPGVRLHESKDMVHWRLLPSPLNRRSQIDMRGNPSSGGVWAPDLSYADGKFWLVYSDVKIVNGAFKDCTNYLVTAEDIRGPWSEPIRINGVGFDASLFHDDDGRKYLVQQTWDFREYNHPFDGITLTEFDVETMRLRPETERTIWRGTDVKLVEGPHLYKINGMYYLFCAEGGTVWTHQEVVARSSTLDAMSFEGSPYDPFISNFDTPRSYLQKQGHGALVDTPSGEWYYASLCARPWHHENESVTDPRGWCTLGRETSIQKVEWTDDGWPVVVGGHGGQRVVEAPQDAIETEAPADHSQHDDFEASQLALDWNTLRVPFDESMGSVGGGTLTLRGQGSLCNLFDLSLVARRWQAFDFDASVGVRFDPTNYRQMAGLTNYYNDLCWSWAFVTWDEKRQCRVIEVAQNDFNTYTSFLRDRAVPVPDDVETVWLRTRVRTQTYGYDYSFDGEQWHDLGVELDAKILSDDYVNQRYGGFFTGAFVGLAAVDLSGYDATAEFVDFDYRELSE
As to the kind of experiment: p-nitrophenol release at […] nm, initial rates, fit with substrate inhibition. It counts as biochemical. The following applies: 50 mM Na-acetate pH 5.2, 40 °C; substrate inhibition by pNPX itself (uncompetitive), second site.

Substrate in series [2]: O=[N+]([O-])c1ccc(O[C@@H]2OC[C@@H](O)[C@H](O)[C@H]2O)cc1
As to the kind of experiment: purified protein. The series is classed as biochemical, Bifidobacterium animalis. The note with it: 50 mM Na-acetate pH 5.2, 40 °C, 0.25–80 mM pNPX, 7.8 nM enzyme, error printed as ± 4.6.

As to `O=[N+]([O-])c1ccc(O[C@@H]2OC[C@@H](O)[C@H](O)[C@H]2O)cc1` [para-nitrophenyl-β-D-xylopyranoside], the Ki in series [1] was found to be 29.6 ± 8.5 mM.

B1: BXA43 (Bifidobacterium animalis subsp. lactis AD011) (protein)
chain: MKIENPVLPGFNADPSMIRVGDTYYIANSTFEWWPGVRLHESKDMVHWRLLPSPLNRRSQIDMRGNPSSGGVWAPDLSYADGKFWLVYSDVKIVNGAFKDCTNYLVTAEDIRGPWSEPIRINGVGFDASLFHDDDGRKYLVQQTWDFREYNHPFDGITLTEFDVETMRLRPETERTIWRGTDVKLVEGPHLYKINGMYYLFCAEGGTVWTHQEVVARSSTLDAMSFEGSPYDPFISNFDTPRSYLQKQGHGALVDTPSGEWYYASLCARPWHHENESVTDPRGWCTLGRETSIQKVEWTDDGWPVVVGGHGGQRVVEAPQDAIETEAPADHSQHDDFEASQLALDWNTLRVPFDESMGSVGGGTLTLRGQGSLCNLFDLSLVARRWQAFDFDASVGVRFDPTNYRQMAGLTNYYNDLCWSWAFVTWDEKRQCRVIEVAQNDFNTYTSFLRDRAVPVPDDVETVWLRTRVRTQTYGYDYSFDGEQWHDLGVELDAKILSDDYVNQRYGGFFTGAFVGLAAVDLSGYDATAEFVDFDYRELSE
notes: full-length ORF 541 residues, C-terminal His-tag, pET24(+), E. coli BL21(DE3); theoretical mass 61,774 Da, about 62 kDa on SDS-PAGE
For the molecule B1, in series [2], the Km was 15.6 ± 4.2 mM and the kcat was determined as 60.6 ± 10.8 s⁻¹.

As usually defined, the Km is the concentration of substrate that gives half-maximal velocity. As usually defined, the kcat is the number of substrate molecules converted per active site and unit of time at saturation.
